Assay results: the DeepSol protein solubility set

Test: soluble on expression in E. coli; label from the status in PepcDB or PDB records

| Sequence | soluble on expression in E. coli |
| --- | --- |
| MSLKAPGALRLLCFSDTHEKHLKIPPHQIVPCDICICAGDFTKFGDPAEVKKFKDWFIKIPARYRVLIAGNHETTFDVERYGRMVTQMRKIKSDLPRETAKSIVQTDGIIYLENESVEIEGLKIYGSPQTHYWEFWAFYYPDKDGPKVWAKIPHDTDILVCHTCPRSTIDLMRGQHVGCKSLANAIKEVQPSLVIYGHLHEGYGVAKIGKSVIANVSLTNLARKLANRPMIFDVSFKTPEIPRPLPKQPEETEIPKDEGHHHHHH | soluble |
| MGNYFPYAFEDKRYHTWNYHLKNKFGQKIFKVALDGGFDCPNRDGTVAHGGCTFCSAAGSGDFAGNRAEPIEVQFKKIKERMHEKWSEGQYIAYFQAFTNTHAPVEVLKEKYEPVLKEDGVVGLSIATRPDCLPDDVVEYLAELNQRTYLWVELGLQTVHQSTSDLINRAHDMQTYYDGVTKLRKHNINVCTHIINGLPGENYDMMMETAKEVAQMDVQGIKIHLLHLLKGTPMVKQYEKGMLEFMSQQDYTNLVCDQLEVLPPEMIVHRITGDGPIDLMVGPMWSVNKWEVLNEIDNELARRNSYQGKMNKQSIQS | not soluble |
| MGSDKIHHHHHHMRIAQIAPLHEAVPPKLYGGTERVVSYLTEALVEMGHDVTLFASGDSQTSAKLEAVWPQALRLDPTIRDVMAPHMLLLEEVRRRADEFDVLHFHIDYYPFPLFSRQPVPHLTTLHGRLDLPELQPIFNTFSDVPVVSISDNQRIPLSQANWLQTTYHGLPENLLKPIPDVKPSYLAFLGRISPEKRVDTAIRIAEQAGMPIKIAAKLDKADRAYYEEKIKPLFSLPHVEYIGEISEAEKAEFLGNAHALLFPIDWPEPFGLVMIEAMACGTPVIAFKRGSVPEVIENGVSGFVVEDELSAVAAVKRLNTLPRERVRAAFDARFTSKVMARNYVKGYEELLRQKRRTVLREVNAG | not soluble |
| MGAAKNIWALANAEDAANDAEQIPYSSFVVDTSLPLPLMIPRIIELCKDLFKNWGELDDSLFSVERVSGGITNLLLKVSVKEDTNKEVSVTVRLYGPNTEYVINREREILAIKYLSAAGFGAKLLGGFGNGMVQSFINARTLEPSDMREPKIAAQIARELGKFHKVDIPGSKEPQLWVDILKFYEKASTLTFEEPDKQKLFETISFEELHKEIIELREFTGLLNAPVVFAHNDLLSGNFMLNDEEEKLYLIDFEYGSYNYRGFDIGNHFNEYAGYDCDYSLYPSKEEQYHFIKHYLQPDKPDEVSIAEVESVFVETDAYKLASHLYWAIWAIIQARMSPIEFEYLGYFFLRYNEYKKQKPLTFSLVTSHLSASL | soluble |
| MEIYHQYIKLRKQFGRFPKFGDEGSEMLADIRPNEDHGKEYIPRNPVTTVTQCVPEMSEHEANTNAVILVNKAMSHVEGGWPKDVDYTEAEHTIRYRKKVEKDEDYIRTVVQLGSSVEDLIKQNNAVDIYQEYFTNVTMDHTSEAPHVKTVTVFKDPNNIKRSASYVNWHPDGSVPKVVVAYSILQFQQQPAGMPLSSYIWDVNNPNTPEYEMVPTSQICCAKFNLKDNNLVGAGQYNGQLAYFDVRKGNGPVEATPIDISHRDPIYDFAWLQSKTGTECMTVSTDGNVLWWDLRKMNECVENMPLKEKNSETTVGGVCLEYDTNAGPTNFMVGTEQGQIFSCNRKAKNPVDRVKYVLSGHHGPIYGLRRNPFNSKYFLSIGDWTARVWVEDTAVKTPILTTKYHPTYLTGGTWSPSRPGVFFTIKMDGAMDVWDLYYKHNEPTLTVQVSDLALTAFAVQESGGTVAVGTSDGCTSVLQLSTGLSEASPAEKANINAMFERETTREKNLEKAIKEAKVKARKEQGRRDEVKDNVTEEQLKALEDEFFKTTDPAVGGGYGAGEGAAAE | not soluble |
| MSADENNLIWIDLEMTGLDPERDRIIEIATLVTDASLNILAEGPTIAVHQSDAQLALMDDWNVRTHTGSGLVDRVKASTMGERDAELATIEFLKTWVPAGKSPICGNSIGQDRRFLFKYMPELEAYFHYRYLDVSTLKELARRWKPEILAGFTKQGTHQAMDDIRESVAELAYYREHFIKL | not soluble |
| MLAGHLFAGVGEDVRLFKGITMTYGHNIELGDNAVVHDGVHLDDRGELVVGARASVSNGAHLYTHDHDVVDQTDVTNYRTEIGADARVTQGALVRAGVRVGENALVGSRSVVQGDVPAHHIAVGSPAESVRVKPGWLEHHHHHH | not soluble |
| MGSDKIHHHHHHMTEIKYKVITKDAFALPYTIIKAKNQPTKGVIVYIHGGGLMFGKANDLSPQYIDILTEHYDLIQLSYRLLPEVSLDCIIEDVYASFDAIQSQYSNCPIFTFGRSSGAYLSLLIARDRDIDGVIDFYGYSRINTEPFKTTNSYYAKIAQSINETMIAQLTSPTPVVQDQIAQRFLIYVYARGTGKWINMINIADYTDSKYNIAPDELKTLPPVFIAHCNGDYDVPVEESEHIMNHVPHSTFERVNKNEHDFDRRPNDEAITIYRKVVDFLNAITMV | not soluble |
| MGSDKIHHHHHHMTVIAVAGKGGTGKTLVSALLINFISEHTTSVLAVDADPDSNLPEALGVEKQVRKTLGEIRELFQVSRDEMGSMNKEQWLEGKIYAEAICECPRYDLLVMGRPEGEGCYCFANSLLRGVLKRLMRHYEYIIIDTEAGLEHFSRKTIDSADYIIIVTDMSRKGLATAKRIKELASELKLNFKKIFLIANRIASEDAEKTIREFAKEEGLELLAVLPYDSSVAEIDLRGEPVSKIDKNSEVYRKMKDVANLMLNLSAKAR | not soluble |
| MGSDKIHHHHHHMSKSVDETVFDFFELLLHEDDSAFSASPIKSQASATSAFDVSIKTEAQQLNDAILAEHERSKVDARASIVPEAQLARAKSIVTVSTKENAEPLVNKQALERLLAPVLKTQAPDIPKPTELNEQPLPLPKPVEAIAVTNVVKPADVESQQVEIISTAPETQVGFAPPSVTKDLQEVLDDEFQVLFFKVAGLTLAVPLVSLGGIVKVERINHIIGRPSWFLGVQTHREEQLNLVDTCAWVMPEKYTDKLAQSVNYQYLVLLEGSNWGLACESLLNAVKIHKSQVNWRSKAGKRPWLAGVVKEQMCGILHVQALVQMLDAGLGCQDSIG | not soluble |
| RELHPVAPLLDNLTSALNKVYQRKGVNISLDISPEISFVGEQNDFVEVMGNVLDNACKYCLEFVEISARQTDEHLYIVVEDDGPGIPLSKREVIFDRGQRVDTLRPGQGVGLAVAREITEQYEGKIVAGESMLGGARMEVIFGRQHSAPKDE | soluble |
| MAHHHHHHMLSLPRDHHYHAHHSGTEFVPFDQVIGITPDGVPVISNGNEFHFSNLESVTPSYQALCSSVRKAPVIVPCTKLGAKWQCVEFARRYLASRKAVWTASMPIAADMLRAEPPFVHVQDSTPVEFTRTPNRSHGPAPAMSDIIVWDQSEETPLGHVAVVTEVLPEAVRVAEQNQGFERWPQGMLYSREISMQRSSAGTVELVDEDSVLGWVTLQCPYYDFRDGDLADKFRIATGPGCIVRQPFPKHVELPWVQPEERCDFYLKRSLAIGGNVGDDARAEECDVPSAFFFYFLDY | not soluble |
| MAHHHHHHMISYSGVLYTSDLMAQLMEMVKYSTHASSRDSDAQRLLRYAVRGSSAAQDDLYRSLWLKVEMVADSRVLGRYIGAREPWSPIRVCFDERGLFKSYPPLVHASAKKTSAIEADATSGSGSTTMEEEQRQQSERQGMSTEITSHTSEGGEEMVEGVRGAVVAEASEASGVKDVALQEASHGEQRTVEALDLRWDDIHRLIERTRALTSPPTERHPQQEKMEIFTGIAVYLRTIATGRRYCSGEEEAGGEYPAESRERALFAVGYELDVWARLFELVQEVRHDMEKFITDNAAHHVEPEFECWEALLITLRCILDFCVVRTQEKGKEERAAVEELFEKTMKLRNELVEESRTRFGGRMRILWLQEA | not soluble |
| ERTRAEQKLAETNVFLNSVVDGVAEPMVVVGLDRRVIMTNRAARDFFQISDVGSDEACHRLIHHRDTPCVREEGMQCPLLDVRTAKRPVIATQEHRDRSGDKRVVEVMTSPLLGSDGVAIGIIEAFRDIT | not soluble |
| MSLFLKDDSIQIREVWNDNLQEEMDLIRDVVDDFPYVAMDTEFPGIVVRPVGTFKSNADYHYETLKTNVNILKMIQLGLTFSNEQGNLPTCGTDKYCIWQFNFREFDLDSDIFALDSIELLKQSGIDLAKNTLDGIDSKRFAELLMSSGIVLNENVHWVTFHSGYDFGYLLKLLTCQNLPDSQTDFFKLINVYFPTVYDIKHLMKFCNSLHGGLNKLAELLEVERVGICHQAGSDSLLTSCTFRKLKENFFVGPLHKYSGVLYGLGVENGQVAI | soluble |
| MEDLLVVGQIINTHGLRGEMKVMPLTEDMRRFDYLEYVILKGKKVKVEGVKYFKDKVILKLEGINSIEEAEKLKRTYLEIEREDAIELEEDEYFIVDLVGCTVVDTEGFEYGKIKDVIQTPSNDVYWVQGKKEVLVPVLKDIVLDINMDEKLITIRPSGEWQYEDLEHHHHHH | not soluble |
| MKHEWRKFEKELYGVKAKPIFLEVEEQRFITIKGKGNPNDQDFSNRVSALYALAYGIKMAYKQAMKTEQDDRAVTDFAVYPLEGLWQQAKDAKEDTLEKDKLSYTIMIRQPEFITKELVDQALDRVKIKKPNSFYESISFESIKDGKCIQVLHIGSYDDEPQSFAKMDAFAKEHGLKRSSDIHREIYLSNAQRTEKSKLKTILRYQVEEK | not soluble |
| MYPDGLTENEKLKVKELCTMVNISDEDAIKLLKENDWDIAISSRRVSKQEDKTLVPGTSREEIDLDRLSSRLRVHGLAFYLPDFGGFPNEFRTFLEKDLIETQTQKRLEASRHLNWWHQFGQKLYPLSTTGDGNCLLHAASLGMWGVHDRQLSLRETLYELLTNGARKEAIRRRWKWVENHMNQSNGLALTLSENEWELEWDVVLGLSSPLPRKQEDNGSNSTDQIYESLEAIHVFALAHVLKRPVVVVSDTILRNAKGEELSPVAFGGIYLPLECPPSQCHRSPLVLCYDSAHFSPLVLMRTETNNKQIIPIIDVNRNLLPVHFAVDPGESFDWSKLETNSNTQTTTDMSQIDKLALISQYMDIIRLDVRRGSIRSSRRVRSAHAQLLTESRGENGQNLPQKSIKPRDLSAHSSDEQPSNNAKGMTLASSGIGSGRHEKWRLINEIRTHVLRTFRISSSTRGKEKLIDTDDCIARMNSTCVLASELLPTHHQYMDKIINEYMKSAKQRFQQNQRTQSDSRKRISRSFSASSLMLTCIGCDSEFKPASQVTNIMCDQCFAWQKMSVLTSNCDQFMGNSGPPCKSSTLPSFGSNDSNQNDKENIVEVLNVVPKDGAKTLTSMRAVEDENGVVHYYMDDEVADS | not soluble |
| MSLQNPFVPQLVYIEPRALEYPLGQELQDKFENMGIEIRETTSHNQVRNIPGKNHLQQYRNAKSTLVIGVRKTLKFDSSKPSAEYAIPFATGCMGHCHYCYLQTTMGSKPYIRTYVNVEEILDQADKYMKERAPEFTRFEASCTSDIVGIDHLTHTLKRAIEHFGQSDLGKLRFVTKFHHVDHLLDAKHNGKTRFRFSINADYVIKNFEPGTSPLDKRIEAAVKVAKAGYPLGFIVAPIYIHEGWEEGYRHLFEKLDAALPQDVRHDITFELIQHRFTKPAKRVIEKNYPKTKLELDEEKRRYKWGRYGIGKYIYQKDEEHALREALESYIDTFFPNAKIEYFTEGHHHHHH | soluble |
| MFGRQVGRVVFRTASVVVQRRSVSASVPQMVKLVAPSVNFIQTRGSKIEVFGPFDPPKQLTFKQVEDRVLKAVRSWDRFPADKESLLKLDADLSKDFGFDSLDQVEIVMALEDEFGFEIPLQDSDKFKTIRDAFKYICEREDVYE | not soluble |
| GPGSMEGERTMKKNKKGSARGDCDGMISVGAKRLLVSVQDKNRRQKHGEFFDELLLVTQKAKRSPQVINIPGKNEVPVLAVGYIARAMGLNLSNVEVSCLVEMVEEKDLASRGFVPADALKEVIVEALMTGIMAPPKAPVKATPSRKKTASTLPPATIKPISVVRDGEEAIYEAFCVLDLSRRGYLEAEEMRHFLRIGGEPFTEEEVEEFITAAADPENGRIYYEEFADVLARE | soluble |
